Measurements from article doi:10.1101/836676, “Crosslinking of nucleotide binding domains improves the coupling efficiency of an ABC transporter” (bioRxiv, 2019).

How the values were obtained:
[1] = biological target: the molecule itself; assay: cross-linking; disulfide cross-linking of purified cysteine variants in detergent: 1 mM Cu(II)-(1,10-phenanthroline)3, 1 hour, 4 °C, 100 mM NaCl, 20 mM Tris pH 7.5, 0.05% DDM, 0.05% C12E8
[2] = biological target: the molecule itself; assay: crystal structure; wildtype NaAtm1 purified in DDM with MgAMPPNP; 50 mM ADA pH 7.1, 8-10% PEG 1000, 8-10% PEG 1500, 20 °C
[3] = biological target: the molecule itself; assay: crystal structure; NaS526C, NaT525C and NaE523Q with bound ATP; condition of NaA527C without MgCl2; samples with 1 mM ATP and 5 mM EDTA

Protein	binding result [1]	also measured
NaA527C, single-site cysteine variant of NaAtm1 (natural protein, Novosphingobium aromaticivorans, C527 in a disulfide with C527 of the second chain after oxidation, NaAtm1 of Novosphingobium aromaticivorans, GenBank ABD27067, with A527C; Made by site-directed mutagenesis of the C-terminally His6-tagged NaAtm1 construct; also called crosslinked NaA527C; source: Escherichia coli BL21-gold (DE3), purified (NiNTA, oxidation with Cu(II)-(1,10-phenanthroline)3, SEC)) MPPETATNPKDARHDGWQTLKRFLPYLWPADNAVLRRRVVGAILMVLLGKATTLALPFAYKKAVDAMTLGGGAQPALTVALAFVLAYALGRFSGVLFDNLRNIVFERVGQDATRHLAENVFARLHKLSLRFHLARRTGEVTKVIERGTKSIDTMLYFLLFNIAPTVIELTAVIVIFWLNFGLGLVTATILAVIAYVWTTRTITEWRTHLREKMNRLDGQALARAVDSLLNYETVKYFGAESREEARYASAARAYADAAVKSENSLGLLNIAQALIVNLLMAGAMAWTVYGWSQGKLTVGDLVFVNTYLTQLFRPLDMLGMVYRTIRQGLIDMAEMFRLIDTHIEVADVPNAPALVVNRPSVTFDNVVFGYDRDREILHGLSFEVAAGSRVAIVGPSGAGKSTIARLLFRFYDPWEGRILIDGQDIAHVTQTSLRAALGIVPQDSVLFNDTIGYNIAYGRDGASRAEVDAAAKGAAIADFIARLPQGYDTEVGERGLKLSGGEKQRVAIARTLVKNPPILLFDEATSCLDTRTEQDILSTMRAVASHRTTISIAHRLSTIADSDTILVLDQGRLAEQGSHLDLLRRDGLYAEMWARQAAESAEVSEAAE	binds	
NaS526C, single-site cysteine variant of NaAtm1 (natural protein, Novosphingobium aromaticivorans, C526 in a disulfide with C526 of the second chain after oxidation, NaAtm1 of Novosphingobium aromaticivorans, GenBank ABD27067, with S526C; Made by site-directed mutagenesis of the C-terminally His6-tagged NaAtm1 construct; source: Escherichia coli BL21-gold (DE3), purified (NiNTA, oxidation with Cu(II)-(1,10-phenanthroline)3, SEC)) MPPETATNPKDARHDGWQTLKRFLPYLWPADNAVLRRRVVGAILMVLLGKATTLALPFAYKKAVDAMTLGGGAQPALTVALAFVLAYALGRFSGVLFDNLRNIVFERVGQDATRHLAENVFARLHKLSLRFHLARRTGEVTKVIERGTKSIDTMLYFLLFNIAPTVIELTAVIVIFWLNFGLGLVTATILAVIAYVWTTRTITEWRTHLREKMNRLDGQALARAVDSLLNYETVKYFGAESREEARYASAARAYADAAVKSENSLGLLNIAQALIVNLLMAGAMAWTVYGWSQGKLTVGDLVFVNTYLTQLFRPLDMLGMVYRTIRQGLIDMAEMFRLIDTHIEVADVPNAPALVVNRPSVTFDNVVFGYDRDREILHGLSFEVAAGSRVAIVGPSGAGKSTIARLLFRFYDPWEGRILIDGQDIAHVTQTSLRAALGIVPQDSVLFNDTIGYNIAYGRDGASRAEVDAAAKGAAIADFIARLPQGYDTEVGERGLKLSGGEKQRVAIARTLVKNPPILLFDEATCALDTRTEQDILSTMRAVASHRTTISIAHRLSTIADSDTILVLDQGRLAEQGSHLDLLRRDGLYAEMWARQAAESAEVSEAAE	binds	
wildtype NaAtm1, bacterial Atm1 homolog from Novosphingobium aromaticivorans (natural protein, NaAtm1, ABC exporter (Atm1 homolog) of Novosphingobium aromaticivorans, GenBank ABD27067; natively cysteine-less; homodimer of 133 kDa; Selenomethionine protein (E. coli B834 (DE3)) was used for phasing; also called native transporter; source: Escherichia coli BL21-gold (DE3), purified (NiNTA, SEC) in DDM) MPPETATNPKDARHDGWQTLKRFLPYLWPADNAVLRRRVVGAILMVLLGKATTLALPFAYKKAVDAMTLGGGAQPALTVALAFVLAYALGRFSGVLFDNLRNIVFERVGQDATRHLAENVFARLHKLSLRFHLARRTGEVTKVIERGTKSIDTMLYFLLFNIAPTVIELTAVIVIFWLNFGLGLVTATILAVIAYVWTTRTITEWRTHLREKMNRLDGQALARAVDSLLNYETVKYFGAESREEARYASAARAYADAAVKSENSLGLLNIAQALIVNLLMAGAMAWTVYGWSQGKLTVGDLVFVNTYLTQLFRPLDMLGMVYRTIRQGLIDMAEMFRLIDTHIEVADVPNAPALVVNRPSVTFDNVVFGYDRDREILHGLSFEVAAGSRVAIVGPSGAGKSTIARLLFRFYDPWEGRILIDGQDIAHVTQTSLRAALGIVPQDSVLFNDTIGYNIAYGRDGASRAEVDAAAKGAAIADFIARLPQGYDTEVGERGLKLSGGEKQRVAIARTLVKNPPILLFDEATSALDTRTEQDILSTMRAVASHRTTISIAHRLSTIADSDTILVLDQGRLAEQGSHLDLLRRDGLYAEMWARQAAESAEVSEAAE		binding result [2]: binds
NaE523Q, ATP-hydrolysis deficient variant of NaAtm1 with the E to Q mutation in the Walker B-motif (natural protein, Novosphingobium aromaticivorans, NaAtm1 of Novosphingobium aromaticivorans, GenBank ABD27067, with E523Q; Made by site-directed mutagenesis of the C-terminally His6-tagged NaAtm1 construct; source: Escherichia coli BL21-gold (DE3), purified (NiNTA, SEC)) MPPETATNPKDARHDGWQTLKRFLPYLWPADNAVLRRRVVGAILMVLLGKATTLALPFAYKKAVDAMTLGGGAQPALTVALAFVLAYALGRFSGVLFDNLRNIVFERVGQDATRHLAENVFARLHKLSLRFHLARRTGEVTKVIERGTKSIDTMLYFLLFNIAPTVIELTAVIVIFWLNFGLGLVTATILAVIAYVWTTRTITEWRTHLREKMNRLDGQALARAVDSLLNYETVKYFGAESREEARYASAARAYADAAVKSENSLGLLNIAQALIVNLLMAGAMAWTVYGWSQGKLTVGDLVFVNTYLTQLFRPLDMLGMVYRTIRQGLIDMAEMFRLIDTHIEVADVPNAPALVVNRPSVTFDNVVFGYDRDREILHGLSFEVAAGSRVAIVGPSGAGKSTIARLLFRFYDPWEGRILIDGQDIAHVTQTSLRAALGIVPQDSVLFNDTIGYNIAYGRDGASRAEVDAAAKGAAIADFIARLPQGYDTEVGERGLKLSGGEKQRVAIARTLVKNPPILLFDQATSALDTRTEQDILSTMRAVASHRTTISIAHRLSTIADSDTILVLDQGRLAEQGSHLDLLRRDGLYAEMWARQAAESAEVSEAAE		binding result [3]: binds
NaT525C, single-site cysteine variant of NaAtm1 (natural protein, Novosphingobium aromaticivorans, NaAtm1 of Novosphingobium aromaticivorans, GenBank ABD27067, with T525C; In the cross-linking test C525 forms a disulfide with C525 of the second chain; source: Escherichia coli BL21-gold (DE3), purified (NiNTA, oxidation with Cu(II)-(1,10-phenanthroline)3, SEC)) MPPETATNPKDARHDGWQTLKRFLPYLWPADNAVLRRRVVGAILMVLLGKATTLALPFAYKKAVDAMTLGGGAQPALTVALAFVLAYALGRFSGVLFDNLRNIVFERVGQDATRHLAENVFARLHKLSLRFHLARRTGEVTKVIERGTKSIDTMLYFLLFNIAPTVIELTAVIVIFWLNFGLGLVTATILAVIAYVWTTRTITEWRTHLREKMNRLDGQALARAVDSLLNYETVKYFGAESREEARYASAARAYADAAVKSENSLGLLNIAQALIVNLLMAGAMAWTVYGWSQGKLTVGDLVFVNTYLTQLFRPLDMLGMVYRTIRQGLIDMAEMFRLIDTHIEVADVPNAPALVVNRPSVTFDNVVFGYDRDREILHGLSFEVAAGSRVAIVGPSGAGKSTIARLLFRFYDPWEGRILIDGQDIAHVTQTSLRAALGIVPQDSVLFNDTIGYNIAYGRDGASRAEVDAAAKGAAIADFIARLPQGYDTEVGERGLKLSGGEKQRVAIARTLVKNPPILLFDEACSALDTRTEQDILSTMRAVASHRTTISIAHRLSTIADSDTILVLDQGRLAEQGSHLDLLRRDGLYAEMWARQAAESAEVSEAAE	binds	
